According to patent publication US20110086768A1:

Molecular target: FLAG-transferrin fusion (pREX1235): modified transferrin (mTf) with a FLAG Tag at the N-terminus and the human GPI sequence at the C-terminus, expressed in HEK-293 cells (human) (UniProt P02787)
Test: FACS of transfected HEK-293 cells with mouse anti-FLAG BioM2 and goat anti-mouse-APC

Chain of UniProt P02787 (P02787 other isoform, or with tags, fused parts or gaps limits assumed): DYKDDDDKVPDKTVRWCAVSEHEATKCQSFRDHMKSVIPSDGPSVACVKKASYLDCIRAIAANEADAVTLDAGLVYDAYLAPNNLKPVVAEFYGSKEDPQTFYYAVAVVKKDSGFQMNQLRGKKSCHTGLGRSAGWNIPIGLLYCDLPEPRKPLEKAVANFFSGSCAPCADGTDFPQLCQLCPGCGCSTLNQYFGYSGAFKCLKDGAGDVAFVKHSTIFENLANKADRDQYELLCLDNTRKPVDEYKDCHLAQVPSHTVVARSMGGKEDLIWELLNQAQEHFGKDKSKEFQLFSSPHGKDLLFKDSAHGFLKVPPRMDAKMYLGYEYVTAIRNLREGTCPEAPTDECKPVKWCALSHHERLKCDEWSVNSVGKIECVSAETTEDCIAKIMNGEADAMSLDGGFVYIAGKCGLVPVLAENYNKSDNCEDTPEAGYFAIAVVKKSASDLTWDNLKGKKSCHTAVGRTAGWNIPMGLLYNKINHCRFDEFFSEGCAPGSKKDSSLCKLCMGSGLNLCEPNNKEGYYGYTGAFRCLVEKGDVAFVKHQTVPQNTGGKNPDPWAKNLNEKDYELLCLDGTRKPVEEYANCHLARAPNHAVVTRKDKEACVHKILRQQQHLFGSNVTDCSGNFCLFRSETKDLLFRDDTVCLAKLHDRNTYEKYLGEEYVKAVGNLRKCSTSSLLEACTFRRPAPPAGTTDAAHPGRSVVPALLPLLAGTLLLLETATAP

mouse anti-FLAG BioM2 (Sigma) (antibody)
fold increase in staining relative to mock-transfected cells: 4 fold
